Target: human S100A5 (hA5) (human) (UniProt P33763)
Test: ITC

Sequence of UniProt P33763 (P33763 whole entry): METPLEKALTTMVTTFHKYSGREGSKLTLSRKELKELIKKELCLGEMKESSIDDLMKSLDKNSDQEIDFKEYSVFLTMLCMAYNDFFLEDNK

- Kd: 4.8 µM
- dH (kcal · mol^−1): -4.5
B1: α-1-syn peptide (fragment of human α-1-syntrophin) (peptide)
peptide: GAGGERWQRVLLSLAEDV

From paper doi:10.1101/2020.06.02.131086
